This note sets out measurements from the RNAGym collection of RNA variant scans (doi:10.1093/nar/gkz1192).

The labels stand for the following.
B1: CPEB3 Ribozyme (parent)
chain: UAACAGGGGGCCACAGCAGAAGCGUUCACGUCGCAGCCCCUGUCAGAUUCUGGUGAAUCUGCGAAUUCUGCUGUAUAUCUC

Variants of B1 are the subject of the data set. Kind of data set: self-cleavage, relative activity (ratio to wild type); higher = more cleavage; in vitro, sequencing. The method in brief: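 CPEB3 self-cleaving ribozyme mutant libraries were made by rounds of error-prone PCR, barcoded, and transcribed in vitro with T7 RNA polymerase for 5 hours at 37°C. Cleavage occurred during transcription and a 15 min DNase I step before EDTA stop. RNAs were reverse transcribed with template switching and Illumina-sequenced, with DNA sequencing mapping barcodes to variants. Relative activity is the variant's cleaved/total read fraction divided by wild type's (minimum 5 reads), averaged across three batches.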
On to G9C A64G, for which the self-cleavage turned out to be 0.08.

Turning to A13C A77G, the self-cleavage was determined as 1.12.

Consider G10A A28C, for which the self-cleavage is 0.1.

Consider C32A U66C, for which the self-cleavage amounted to 0.16.

For U51C C62U, the self-cleavage was found to be 0.31.

On to G53A A65G, for which the self-cleavage worked out at 0.52.

For G9A U31C, the self-cleavage worked out at 0.29.

Take A15U C59G: the self-cleavage amounted to 0.1.

For G6C G19U, the self-cleavage is 0.2.

C32U U54A: the self-cleavage was 0.2.

Take G52C A77C: the self-cleavage came to 1.11.

Regarding A13U C39G, the self-cleavage came to 0.51.

As for A3U G63A, the self-cleavage turned out to be 1.03.

Consider A45G A56G, for which the self-cleavage came out at 0.6.

On to G9C C79A, for which the self-cleavage worked out at 0.58.

A28G G73C: the self-cleavage is 1.29.

As to C37U U69C, the self-cleavage was 0.42.

Regarding G8A U54C, the self-cleavage amounted to 0.14.

In the case of G8A U54A, the self-cleavage was 0.08.

For A3G U58G, the self-cleavage came out at 0.39.

On to A3G U58A, for which the self-cleavage was 0.43.

As for G22U A35U, the self-cleavage was 0.09.

Consider C38A A45U, for which the self-cleavage came out at 0.33.

On to A64U G70U, for which the self-cleavage stood at 0.26.

Consider A35G G36U, for which the self-cleavage stood at 0.5.

Regarding G9U A75U, the self-cleavage came out at 0.17.

Take A47G U78A: the self-cleavage is 1.07.

For the variant G46U U54G, the self-cleavage came to 0.16.

Consider A45G G55C, for which the self-cleavage turned out to be 0.67.

For A21U A65G, the self-cleavage turned out to be 0.34.

As to G19C U25C, the self-cleavage is 0.06.

G6C U67C: the self-cleavage turned out to be 0.3.

As for C34A U78A, the self-cleavage stood at 0.16.

U26A C62A: the self-cleavage turned out to be 0.25.

G63U U78C: the self-cleavage amounted to 0.96.

On to A21G U74A, for which the self-cleavage is 1.03.

Turning to A21U U26A, the self-cleavage was 0.35.

As to U51A A65U, the self-cleavage worked out at 0.21.

With U26A U43A, the self-cleavage amounted to 0.39.

In the case of G6U U26C, the self-cleavage was 0.38.

For the variant C27A U43C, the self-cleavage came out at 0.18.

As to C37A U43C, the self-cleavage came out at 0.43.

With C29G A57G, the self-cleavage was determined as 0.51.

With A56C U78C, the self-cleavage turned out to be 0.49.

Regarding A5G C59U, the self-cleavage amounted to 0.65.

Take A64C: the self-cleavage stood at 0.29.

With A57G U67C, the self-cleavage was found to be 0.35.

With A15G G53A, the self-cleavage was determined as 1.02.

For the variant U74C, the self-cleavage amounted to 1.23.

Take A64G C81U: the self-cleavage stood at 0.91.

Take C14G G53A: the self-cleavage amounted to 1.19.

Consider G8U U31C, for which the self-cleavage was determined as 0.11.

In the case of C12A, the self-cleavage was found to be 1.15.

Take C39A U66C: the self-cleavage was found to be 0.39.

Turning to A21C, the self-cleavage was found to be 0.24.

Take U51A C62G: the self-cleavage was found to be 0.23.

In the case of U41C A77G, the self-cleavage came out at 1.17.

In the case of G6U U80A, the self-cleavage is 0.44.

Regarding A18C C27U, the self-cleavage is 0.21.

Consider G52A A56U, for which the self-cleavage is 1.14.

On to U51C U80A, for which the self-cleavage worked out at 1.13.

Turning to G16C G22C, the self-cleavage stood at 0.07.

As to G46U U66C, the self-cleavage was 0.16.

As for A20G C44A, the self-cleavage is 0.32.

Take A20U G52C: the self-cleavage was determined as 0.27.

U26G A75G: the self-cleavage turned out to be 0.16.

Turning to G63A U66C, the self-cleavage worked out at 0.45.

For G46A U72C, the self-cleavage was found to be 0.32.

As for C37A U69A, the self-cleavage worked out at 0.12.

In the case of G22A A45G, the self-cleavage was 0.14.

On to A2G C27U, for which the self-cleavage came to 0.4.

For C29U C32U, the self-cleavage is 0.51.

For U26C U67G, the self-cleavage was determined as 0.21.

Take G7U A35G: the self-cleavage came out at 0.14.

Consider G22A U25A, for which the self-cleavage was 0.18.

In the case of G8A A77U, the self-cleavage is 0.18.

Consider A13C G36C, for which the self-cleavage was found to be 0.35.

Regarding A20U G22A, the self-cleavage amounted to 0.2.

A28G A64G: the self-cleavage came out at 0.46.

In the case of C29A U48A, the self-cleavage stood at 0.09.

Turning to A28G U51G, the self-cleavage was 0.45.

For A2G G9U, the self-cleavage turned out to be 0.42.

For the variant U54G U58C, the self-cleavage came to 0.39.

With A18G U80C, the self-cleavage is 0.86.

Regarding U26A A57G, the self-cleavage turned out to be 0.78.

With A35G A47U, the self-cleavage stood at 1.16.

As for G63A A77G, the self-cleavage was 0.74.

As to C38U U74A, the self-cleavage amounted to 1.1.

Regarding G9U U51A, the self-cleavage amounted to 0.14.

Turning to C39U A47G, the self-cleavage amounted to 0.48.

Turning to G8U A18G, the self-cleavage was 0.14.

In the case of A5G C40U, the self-cleavage was determined as 0.27.

On to U1G, for which the self-cleavage amounted to 1.01.

For G53A U60A, the self-cleavage came out at 0.68.

For the variant A20G U72A, the self-cleavage was 0.46.

Take A15G A21U: the self-cleavage came out at 0.33.

Take A57G U69G: the self-cleavage is 0.72.

On to A45C A75U, for which the self-cleavage is 0.5.

Regarding A45U U78C, the self-cleavage was found to be 0.44.

In the case of A15G C17A, the self-cleavage was determined as 0.34.

C11A A28G: the self-cleavage stood at 0.1.

On to C44G A56G, for which the self-cleavage is 0.44.

For the variant A20U G42U, the self-cleavage was 0.13.

Regarding G16C A20G, the self-cleavage turned out to be 0.11.

Consider A21C A47G, for which the self-cleavage came out at 0.3.

As for A47C U76A, the self-cleavage is 0.48.

For the variant G10A U66C, the self-cleavage came to 0.2.

With G53C U76C, the self-cleavage was 1.06.

For the variant A15U C79U, the self-cleavage is 1.14.

Regarding A28U C81A, the self-cleavage amounted to 0.84.

Consider G30A U66C, for which the self-cleavage was determined as 0.32.

For A3U A47U, the self-cleavage is 0.71.

For G10A U60C, the self-cleavage turned out to be 0.2.

For the variant A35U U60G, the self-cleavage was 0.17.

With C40G U43C, the self-cleavage was found to be 0.16.

For C37U U51A, the self-cleavage came out at 0.58.

For the variant U26A C38U, the self-cleavage amounted to 0.51.

Turning to A35G A56C, the self-cleavage came to 1.27.

As to U72C U74A, the self-cleavage worked out at 1.24.

As for U67G A77C, the self-cleavage was 0.32.

On to U80C C81A, for which the self-cleavage was 1.23.

On to C50U U58C, for which the self-cleavage worked out at 0.35.

Turning to U51G U72C, the self-cleavage amounted to 0.95.

Consider U25C A64C, for which the self-cleavage turned out to be 0.45.

U51G C81A: the self-cleavage came to 1.25.

As for G19U G61A, the self-cleavage was determined as 0.3.

For C38A U48A, the self-cleavage worked out at 0.36.

C27A C59A: the self-cleavage turned out to be 0.11.

For C38G A57G, the self-cleavage was found to be 0.23.

As to C68U U72A, the self-cleavage amounted to 0.35.

For C34U U54A, the self-cleavage was 0.24.

Regarding G46U U49A, the self-cleavage was 0.29.

In the case of U25C U54G, the self-cleavage turned out to be 0.31.

G6C A21G: the self-cleavage was determined as 0.56.

Consider C62G U69A, for which the self-cleavage is 0.15.

G22A U26C: the self-cleavage is 0.19.

A21G C38A: the self-cleavage came to 0.33.

On to U41A A64U, for which the self-cleavage was 0.29.

With G42A U72A, the self-cleavage turned out to be 0.18.

Regarding G42A U72C, the self-cleavage came out at 0.37.

Turning to A2U G10U, the self-cleavage came out at 0.29.

In the case of A20G A28C, the self-cleavage turned out to be 0.52.

For G36C U74C, the self-cleavage stood at 0.2.

Turning to U26A U48A, the self-cleavage came out at 0.35.

Consider G9A A28U, for which the self-cleavage is 0.22.

Consider G53C U80C, for which the self-cleavage was found to be 0.96.

G53C U80A: the self-cleavage worked out at 1.22.

For the variant C11G U49G, the self-cleavage was determined as 0.31.

Consider G9A A47G, for which the self-cleavage was 0.37.

For the variant G8U A15G, the self-cleavage turned out to be 0.24.

As for U1C G70C, the self-cleavage came to 0.35.

Consider U41G A45U, for which the self-cleavage is 0.17.

Consider U43A G55A, for which the self-cleavage amounted to 0.77.

In the case of U43G A65G, the self-cleavage came to 0.34.

For A13C U54C, the self-cleavage was found to be 1.09.

For G9C U54C, the self-cleavage turned out to be 0.41.

As to A35G G61A, the self-cleavage was 1.11.

For A35G G61U, the self-cleavage came to 1.23.

As to A21C U25A, the self-cleavage was 0.28.

For C37A A57G, the self-cleavage stood at 0.2.

Consider A2G A45U, for which the self-cleavage worked out at 0.44.

With G6A A28U, the self-cleavage amounted to 0.4.

With A45G U58C, the self-cleavage is 0.31.

Regarding A5G C32G, the self-cleavage was 0.39.

As for U25A U69C, the self-cleavage came to 0.25.

For the variant G6A C12A, the self-cleavage amounted to 0.39.

G33A A45C: the self-cleavage was determined as 0.22.
